Laboratory results taken from patent US20080070264A1, “Intracellular Signaling-Induced Ret-Independent Gdnf Receptor-Effected Morphological Changes” (JPMORGAN CHASE BANK N.A., priority 2003, published 2008).

What was measured:
wild-type MDCK cells = test: Branching tubule formation assay in 3-D collagen gel; type: cell-based, dog
Method: From the total amount of cysts in the field, the percentage of cysts with long branches was calculated. Only branches with lengths of more than two cyst diameters were counted.
Trypsinized cells were mixed 1:3 with collagen type I solution and plated. MEM with 10% FCS was overlaid on the gels with or without GDNF (Cephalon Inc. or R&D Systems, Inc.) or 50 ng/ml HGF. Cells in collagen were cultured for 3 days; GDNF-containing medium was changed daily. For quantification, cells were cultured for 3 days, fixed by 3% glutaraldehyde in PBS and counted under a light microscope.
To avoid the effect of possible contamination of GDNF preparation, recombinant GDNF from two different sources were tested. One tested GDNF was expressed in baculovirus-infected insect cells (Cephalon Inc.), the other was expressed in mouse myeloma cell line NSO (R&D Systems, Inc.).

MET [1] = test: MET phosphorylation in MDCK cells (immunoprecipitation, Western blotting); type: cell-based, dog
Method: To detect MET activation, GFRα1- and RET/GFRα1-expressing MDCK or SHEP cells were starved overnight in MEM or RPMI 1640 with 1% FCS, respectively, and in serum-free medium for 2 h prior the induction. After 15 min incubation at 37° C. with GDNF (at indicated concentrations) or with 50 ng/ml HGF, cells were lysed as described. Cleared cell lysates were incubated with anti-MET antibodies (Santa Cruz Biotechnologies, Inc.) overnight at 4° C. Immunoprecipitates were collected with protein A-SEPHAROSE (Amersham Pharmacia Biotech), washed, separated by SDS-PAGE and transferred to HYBOND-ECL membranes. Membranes were immunoblotted with anti-phospho-tyrosine antibodies (Upstate Group Inc.) or anti-MET antibodies.
Alternatively, 30 μg of protein was incubated overnight at 4° C. with 10 μl Immobilized Phospho-Tyrosine Monoclonal Antibodies (Cell Signalling, NEB). Immunocomplexes were washed and analysed as described.
For all experiments, densitometry and quantifications were performed using TINA 2.0 program (Raytest, Straubenhardt, Germany).
For the inhibition of MET, and Src activation, SHEP or GFRα1- and RET/GFRα1-expressing MDCK cells were starved as described above. 1 or […] of the inhibitor PP2 (Calbiochem) was added 30 min before induction by GDNF or HGF. DMSO (dimethyl sulfoxide) was added to the positive controls together with GDNF or HGF.

Src-type kinases = test: Src activation (Tyr418 phosphorylation) in MDCK cells; type: cell-based, dog; conditions: GFRα1-expressing and RET/GFRα1-expressing MDCK cells
Method: FIG. 7A: Dose-dependent Src-kinase activation by GDNF in GFRα1-expressing and RET/GFRα1-expressing MDCK cells. The activation of Src-type kinases was observed after 15 minutes. The concentrations of GDNF are indicated. The numbers below the lane reflect the fold of increase in phosphorylation of Tyr418 of Src. The lower panels show the re-probing of the same filter with anti-Src antibodies. The results are representative of three independent experiments.
To analyze Src activation, subconfluent GFRα1- and RET/GFRα1-expressing MDCK cell cultures were starved for 24 h before induction in serum-free MEM. After 10 min incubation at 37° C. with 50 ng/ml GDNF (Cephalon Inc. or R&D Systems, Inc.) or 50 ng/ml HGF (Sigma) cells were lysed in lysis buffer supplemented with 1 mM Na-orthovanadate and analyzed by Western blotting as described (Lindahl et al., 2001). The Western blots were probed with the indicated antibodies and developed with ECL reagents (Amersham Pharmacia Biotech). Antibodies used included anti-Y^418 Src and anti-Src (BioSource International).
Possible candidates for messengers between GDNF-GFRα1 complex and MET are Src family kinases. […]

MET [2] = molecular target: T1, MET (Chlorocebus aethiops, UniProt Q2IBA6); test: 125I-labelled GDNF and HGF binding, chemical crosslinking, anti-MET immunoprecipitation; conditions: RET/GFRα1-expressing MDCK cells; data not shown
T1 construct: different combinations of the MET β-subunit (140 kDa), Met-αβ heterodimer (190 kDa) and HGF complexes; endogenous in cells; host or cells: COS7 cells (wild type for 125I-HGF; transfected with pc3-GFRα1/GFP for 125I-GDNF)
T1 sequence (Q2IBA6 25-1381): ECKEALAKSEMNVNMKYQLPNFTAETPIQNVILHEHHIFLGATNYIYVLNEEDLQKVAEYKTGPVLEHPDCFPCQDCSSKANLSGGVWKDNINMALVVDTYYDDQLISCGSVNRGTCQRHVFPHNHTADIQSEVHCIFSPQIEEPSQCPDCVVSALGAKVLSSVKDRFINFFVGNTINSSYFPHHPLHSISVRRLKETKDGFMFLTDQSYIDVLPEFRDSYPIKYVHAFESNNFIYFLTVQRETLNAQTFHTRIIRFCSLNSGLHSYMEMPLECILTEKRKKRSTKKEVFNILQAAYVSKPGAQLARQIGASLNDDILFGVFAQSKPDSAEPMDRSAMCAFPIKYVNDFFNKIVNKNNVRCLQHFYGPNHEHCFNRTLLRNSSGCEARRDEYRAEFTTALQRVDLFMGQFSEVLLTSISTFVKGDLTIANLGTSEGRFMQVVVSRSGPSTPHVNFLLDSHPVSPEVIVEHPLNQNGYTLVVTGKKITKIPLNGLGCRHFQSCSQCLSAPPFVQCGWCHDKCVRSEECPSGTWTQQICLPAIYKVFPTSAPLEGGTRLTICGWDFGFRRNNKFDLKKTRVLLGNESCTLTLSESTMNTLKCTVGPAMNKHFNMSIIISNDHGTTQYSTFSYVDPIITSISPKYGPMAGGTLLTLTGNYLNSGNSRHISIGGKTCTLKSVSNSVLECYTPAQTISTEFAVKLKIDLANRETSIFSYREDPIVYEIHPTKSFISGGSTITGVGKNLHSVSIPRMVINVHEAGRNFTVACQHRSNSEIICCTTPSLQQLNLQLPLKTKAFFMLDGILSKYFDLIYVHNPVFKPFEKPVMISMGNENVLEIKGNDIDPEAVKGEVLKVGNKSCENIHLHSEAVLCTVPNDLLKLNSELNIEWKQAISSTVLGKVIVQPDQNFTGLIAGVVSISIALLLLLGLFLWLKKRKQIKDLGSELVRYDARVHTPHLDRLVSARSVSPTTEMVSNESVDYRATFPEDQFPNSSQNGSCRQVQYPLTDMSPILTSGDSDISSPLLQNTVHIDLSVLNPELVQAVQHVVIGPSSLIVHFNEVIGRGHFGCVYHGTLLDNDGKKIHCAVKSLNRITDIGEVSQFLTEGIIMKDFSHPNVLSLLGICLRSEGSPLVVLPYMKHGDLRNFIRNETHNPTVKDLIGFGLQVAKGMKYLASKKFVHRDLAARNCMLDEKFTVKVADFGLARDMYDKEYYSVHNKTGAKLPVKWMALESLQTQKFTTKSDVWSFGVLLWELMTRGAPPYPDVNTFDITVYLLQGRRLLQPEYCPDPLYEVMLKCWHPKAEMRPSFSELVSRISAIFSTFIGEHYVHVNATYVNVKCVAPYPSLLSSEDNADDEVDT
Method: Binding of ^125I-GDNF to COS7 cells transfected with GFRα1, and ^125-HGF to wild-type COS7, followed by cross-linking with EDC together with sulfo-NHS. Inmunoprecipitates with anti-MET antibodies (IP-Met) were analysed by SDS-PAGE under reducing conditions. ^125I-HGF α subunit and proHGF are marked by arrows. ^125I-HGF/MET complexes are denoted by arrow heads. The results are representative of five independent experiments.
GDNF and HGF were enzymatically iodinated with [^125I]NaI (Amersham Pharmacia Biotech) with lactoperoxidase to a specific activity of 100.000 cpm/ng as described (31). COS7 cells were transfected with pc3-GFRα1/GFP two days prior the assay. 2 nM of ^125I-GDNF or 1 nM of ^125I-HGF were allowed to bind to cell monolayers for 1-2 h on ice in binding buffer (DMEM/15 mM HEPES, pH 7.5; 0.2% BSA), washed, and chemically cross-linked for 30 min at room temperature using BS^3 ([Bis(sulfosuccinimidyl)suberate]), DSS ((Disulfosuccinimidyl)suberate), DSP (3,3-Dithio-bis-(sulfosuccinimidyl)propionate) or EDC ((1-Ethyl-3-[3-dimethylaminopropyl]carbodiimide Hydrochloride)) with sulfo-NHS (N-Hydroxysulfosuccinimide) (Pierce). The non-specific binding of GDNF was estimated by the amount of ^125I-GDNF binding to cells in the presence of 300 n M unlabeled GDNF. Cells were washed, lysed and immunoprecipitated with anti-MET antibodies as described. Gels were dried and analyzed by phosphorimaging in a BAS Reader 1800 (Fuji).

MET [3] = test: MET phosphorylation in Neuro-2A neuroblastoma cells; type: cell-based
MET [4] = test: MET activation in GFRα1-transfected NIH 3T3 fibroblasts; type: cell-based

B1: GDNF: recombinant glial cell line-derived neurotrophic factor from Cephalon Inc. (baculovirus-infected insect cells) or R&D Systems, Inc. (mouse myeloma NSO) (protein, UniProt P39905 78-211, looked up)
Glial cell line-derived …: SPDKQMAVLPRRERNRQAAAANPENSRGKGRRGQRGKNRGCVLTAIHLNVTDLGLGYETKEELIFRYCSGSCDAAETTYDKILKNLSRNRRLVSDKVGQACCRPIAFDDDLSFLDDNLVYHILRKHSAKRCGCI
In the case of B1, the branching tubule formation (wild-type MDCK cells; ligand 100 ng/ml, 3-D collagen gel) is reported as “did not”, the branching tubule formation (wild-type MDCK cells; mock-transfected MDCK cells used as controls) is reported as “did not from branching tubules” and the MET phosphorylation (MET [1]; GFRα1- and Ret/GFRα1-expressing MDCK cells) is reported as “evoked MET phosphorylation”. For the same molecule, the “GDNF concentration at which MET activation reached saturation” value (MET [1]; GFRα1- and Ret/GFRα1-expressing MDCK cells, 15 min) was 0.1 pg/mL, the “time to MET activation” value (MET [1]; GFRα1-expressing and RET/GFRα1-expressing MDCK cells) was ≤ 15 min and the “duration of MET activation” value (MET [1]; GFRα1-expressing and RET/GFRα1-expressing MDCK cells, data not shown) was “at least 2 hours”. For the same molecule, the “concentration at which MET is saturated” value (MET [1]; GFRα1-expressing and RET/GFRα1-expressing MDCK cells, printed as 4 fM (0.1 pg/ml)) was 4 fM, the MET phosphorylation (MET [1]; wild type MDCK cells) was “but not in wild type MDCK cells” and the “GDNF concentration that saturated Src phosphorylation” value (Src-type kinases) was 0.1 pg/mL. The “time at which activation of Src-type kinases was observed” value (Src-type kinases) was 15 min, the “direct association of the GDNF receptor complex and MET” value (MET [2]) was “no direct association” and the MET phosphorylation (MET [3]) was “induced MET phosphorylation”. For the same molecule, the MET activation (MET [4]) was “takes place”.
